Reference: publication PMC7472415 (Viruses, 2020)
pKd: −log10 of the molar value.

Molecular target: B/NP_TAIL mut1-YFP, B/NP_TAIL-YFP with point mutations in the positive charge patch of the NLS (influenza B virus B/Memphis/13/03)
Test: SPR

Sequence of human importin-α5 without its importin-β binding (IBB) domain (residues 66 to 538) (P52294 66-538): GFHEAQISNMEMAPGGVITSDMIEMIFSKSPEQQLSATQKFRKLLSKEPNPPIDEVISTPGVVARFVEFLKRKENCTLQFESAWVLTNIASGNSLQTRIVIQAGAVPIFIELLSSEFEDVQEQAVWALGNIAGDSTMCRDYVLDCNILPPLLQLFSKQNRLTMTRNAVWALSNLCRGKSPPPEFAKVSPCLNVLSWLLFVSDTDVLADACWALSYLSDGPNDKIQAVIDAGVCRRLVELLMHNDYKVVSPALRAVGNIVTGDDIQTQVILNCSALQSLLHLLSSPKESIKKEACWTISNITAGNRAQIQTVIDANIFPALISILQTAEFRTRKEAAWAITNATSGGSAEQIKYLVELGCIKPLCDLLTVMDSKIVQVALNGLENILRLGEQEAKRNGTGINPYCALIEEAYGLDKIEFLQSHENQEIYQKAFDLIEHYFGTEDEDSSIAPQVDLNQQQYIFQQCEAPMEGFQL
Sequence of human importin-α7 without its importin-β binding (IBB) domain (residues 58 to 536) (O60684 58-536): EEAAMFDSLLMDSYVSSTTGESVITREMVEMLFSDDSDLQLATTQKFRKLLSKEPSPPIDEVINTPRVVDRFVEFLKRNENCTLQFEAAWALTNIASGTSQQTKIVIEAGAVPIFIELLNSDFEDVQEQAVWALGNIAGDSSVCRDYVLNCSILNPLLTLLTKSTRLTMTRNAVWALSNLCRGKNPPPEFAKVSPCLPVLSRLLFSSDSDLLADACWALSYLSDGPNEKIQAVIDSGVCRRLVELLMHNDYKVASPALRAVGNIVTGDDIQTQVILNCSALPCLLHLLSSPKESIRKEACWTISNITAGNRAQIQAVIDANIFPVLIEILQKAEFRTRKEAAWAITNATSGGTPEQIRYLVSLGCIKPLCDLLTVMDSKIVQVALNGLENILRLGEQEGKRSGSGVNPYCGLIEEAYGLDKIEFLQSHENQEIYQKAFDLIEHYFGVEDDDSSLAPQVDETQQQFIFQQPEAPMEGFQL
Sequence of human importin-α3 without its importin-β binding (IBB) domain (residues 64 to 521) (O00629 64-521): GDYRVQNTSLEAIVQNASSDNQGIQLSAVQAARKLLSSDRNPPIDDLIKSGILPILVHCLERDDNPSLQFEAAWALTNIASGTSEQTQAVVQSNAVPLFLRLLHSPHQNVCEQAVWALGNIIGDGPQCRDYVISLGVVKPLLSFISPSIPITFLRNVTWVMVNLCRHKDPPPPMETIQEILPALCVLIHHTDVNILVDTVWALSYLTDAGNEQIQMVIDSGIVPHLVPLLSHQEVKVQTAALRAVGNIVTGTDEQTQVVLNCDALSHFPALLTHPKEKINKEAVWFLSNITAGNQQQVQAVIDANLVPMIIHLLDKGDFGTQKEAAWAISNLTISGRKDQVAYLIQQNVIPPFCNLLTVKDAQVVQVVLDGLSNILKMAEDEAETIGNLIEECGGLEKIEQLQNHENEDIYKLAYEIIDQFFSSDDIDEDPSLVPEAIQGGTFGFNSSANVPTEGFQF

Substance | pKd
human importin-α3 without its importin-β binding (IBB) domain (residues 64 to 521) (from UniProt O00629 64-521) (domain or fragment) | < 5.30
human importin-α5 without its importin-β binding (IBB) domain (residues 66 to 538) (from UniProt P52294 66-538) (domain or fragment) | < 5.30
human importin-α7 without its importin-β binding (IBB) domain (residues 58 to 536) (from UniProt O60684 58-536) (domain or fragment) | < 5.30
